Assay results as given in patent US20260055186A1 (REPERTOIRE IMMUNE MEDICINES, published 2026).
Where two headings read alike, the source gives them in different places.

Key:
[1] = biological target: T1, human CD8 on human T cells (human, UniProt P01732 22-235); experiment: flow cytometry on human CD8+ T cells, titration
T1 construct: whole, on cells; the antibodies were raised against human CD8 alpha; also called CD8 on human CD8+ T cells; hCD8
Method: (§1) The 24 humanized 02A01-derived anti-CD8 antibodies (excluding 02A01-VK3(D30E/N35Q)) were screened for their ability to bind human CD8 by evaluating binding to CD8+ T cells. The non-humanized parent (“02-Parent”) and the non-humanized parent comprising a heavy chain M39L liability mutation (“02-Parent-VH-M39L”) were used as controls. […] Cells were washed with 1×phosphate buffered saline (PBS) containing 1 mg/mL bovine serum albumin (PBS/BSA) and then stained with a 1:100 dilution of DyLight650-conjugated anti-human IgG H+L polyclonal antibody (ThermoFisher cat. no. Sa5-10129) in PBS/BSA. Following a 20-30 min incubation at 4° C., the cells were washed once with PBS/BSA, and then resuspended in PBS/BSA for analysis on a FACSCelesta using Diva software (BD Biosciences). The resulting data were analyzed using FlowJo. Data were quantified and reported as Max fluorescence intensity (MFI) of human IgG-Fc. […] Complete replacement of the HCDR1 (antibodies comprising VH5) eliminated binding to the CD8+ T cells.
(§2) Binding to human CD8+ T cells was tested at 7 serial 5-fold dilutions of each tested humanized 02A01 variant (from 50 nM to 3.2 pM). The resulting data were analyzed using FlowJo.

[2] = biological target: T1, human CD8 on human T cells; experiment: flow cytometry on human CD3+ T cells, apparent KD, 4PL fit
Method: (§3) The amino acid sequences of the resulting murine anti-CD8 antibodies 02A01, 03A01, 04D08, 05F10, and 11F05 are provided in Tables 1-3 herein above. These antibodies were recombinantly produced. Their binding affinity to CD8 expressed on the cell surface was measured by flow cytometry, and their respective binding affinities are reported in Table 8 and Table 9. Briefly, human or cynomolgus monkey CD3⁺ T cells were incubated with […] of anti-CD8 antibodies (from 250 nM to […]) for 30 minutes. Following the incubation, unbound antibodies were washed away, and the bound antibodies were detected with a AlexaFluor-647-labeled anti-human Fc detection antibody. The median fluorescence intensity of AlexaFluor-647 on the live cells was used to evaluate anti-CD8 antibody levels on the cell surface. Binding affinity (KD) values for anti-CD8 antibody T cell binding were determined with GraphPad Prism 7.0 using 4-Parameter logistic regression.

human CD8α/β [3] = biological target: T2, human CD8α/β (human, UniProt P01732 22-182; P10966 22-170); experiment: SPR, antibody captured on Protein A chip, hCD8α/β as analyte
T2 construct: Soluble heterodimer used in SPR and in the Carterra binning (there printed only as CD8α/β); also called hCD8α/β
T2 sequence (P01732 22-182, chain 1 of 2): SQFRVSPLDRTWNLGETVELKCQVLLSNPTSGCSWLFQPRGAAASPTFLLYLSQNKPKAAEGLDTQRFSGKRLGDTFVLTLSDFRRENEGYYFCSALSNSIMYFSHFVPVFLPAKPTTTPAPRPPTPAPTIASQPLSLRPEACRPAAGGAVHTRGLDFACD
T2 sequence (P10966 22-170, chain 2 of 2): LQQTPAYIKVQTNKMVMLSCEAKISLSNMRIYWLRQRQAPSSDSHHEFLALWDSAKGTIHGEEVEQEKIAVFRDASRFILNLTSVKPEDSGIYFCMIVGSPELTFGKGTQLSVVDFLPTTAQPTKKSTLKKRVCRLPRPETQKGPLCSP
Method: (§4) The binding affinities of six of the humanized anti-CD8 antibodies to human CD8 were also determined by surface plasmon resonance (SPR). Briefly, equilibrium dissociation constants for human CD8α/β were determined using a real-time SPR biosensor using a Protein A Sensor Chip (Cytiva) to capture purified anti-CD8 monoclonal antibodies at a concentration of 0.5 nM. SPR binding studies were performed in a buffer composed of Phosphate buffered saline, pH 7.2 containing 0.05% v/v Surfactant P20 (PBS-P20 buffer). Different concentrations of hCD8α/β prepared in PBS-P20 running buffer (ranging from 500 nM to 7.8 nM, 2-fold dilutions) were injected over the anti-CD8 monoclonal antibody captured surface. Association of hCD8α/β to the captured monoclonal antibody was monitored for 400 seconds and the dissociation of hCD8α/β in PBS-P20 running buffer was monitored for 600 sec. All of the binding kinetics experiments were performed at 25° C. Kinetic association (kₐ) and dissociation (kd) rate constants were determined by fitting the real-time sensorgrams to a 1:1 binding model using Scrubber 2.0c curve fitting software.

[4] = biological target: T1, human CD8 on human T cells; experiment: flow cytometry on human CD8+ T cells, titration, apparent KD
Method: as §1, §2

[5] = biological target: T3, cynomolgus monkey CD8 on cynomolgus cells (cynomolgus monkey); experiment: flow cytometry on cynomolgus CD3+ T cells, apparent KD, 4PL fit
T3 construct: whole, on cells; also called cynomolgus CD8
Method: as §3

human CD8α/β [6] = biological target: T2, human CD8α/β; experiment: SPR, antibody captured on Protein A chip, hCD8α/β as analyte, 1:1 fit
Method: as §4

[7] = biological target: T1, human CD8 on human T cells; experiment: flow cytometry on human CD8+ T cells, titration; remark: listed apart in the source
Method: (§5) The 16 above-referenced humanized 03A01-derived anti-CD8 antibodies were screened for their ability to bind human CD8 by evaluating binding to CD8⁺ T cells. The non-humanized parent (“03-Parent”) and the non-humanized parent comprising a heavy chain D64E liability mutation (“03-Parent-VH-D64E”) were used as controls. […] Cells were washed with 1×phosphate buffered saline (PBS) containing 1 mg/mL bovine serum albumin (PBS/BSA) and then stained with a 1:100 dilution of DyLight650-conjugated anti-human IgG H+L polyclonal antibody (ThermoFisher cat. no. Sa5-10129) in PBS/BSA. Following a 20-30 min incubation at 4° C., the cells were washed once with PBS/BSA, and then resuspended in PBS/BSA for analysis on a FACSCelesta using Diva software (BD Biosciences). The resulting data were analyzed using FlowJo. Data were quantified and reported as Max fluorescence intensity (MFI) of human IgG-Fc. […] Complete replacement of the LCDR1 (antibodies comprising VK4) eliminated binding to the CD8⁺ T cells.
(§6) The binding affinities of five of the above-referenced humanized anti-CD8 antibodies to human CD8 were determined by evaluating binding to CD8 human T cells using the method described above. Binding to human CD8+ T cells was tested at 7 serial 5-fold dilutions of each humanized 03A01 variant (from 50 nM to 3.2 pM). The resulting data were analyzed using FlowJo.

[8] = biological target: T1, human CD8 on human T cells; experiment: flow cytometry on human CD8+ T cells, titration, apparent KD; remark: listed apart in the source
Method: as §5, §6

[9] = biological target: T1, human CD8 on human T cells; experiment: cell-based or functional assay
[10] = biological target: T1, human CD8 on human T cells; experiment: cell-based or functional assay; remark: listed apart in the source
[11] = biological target: T1, human CD8 on human T cells; experiment: flow cytometry, human PBMC co-cultured 1 h with the fusion protein, anti-IL2 staining gated on CD8 T cells (IL2 loading, MFI)
Method: (§7) Anti-human CD8-human IL2 molecules were evaluated for their ability to specifically bind and load IL2 on CD8 T cells. Briefly, 1×10⁵ human PBMC were co-cultured with indicated CD8-IL2 (human FC receptor) molecules from one of the concentrations ranging from 0.05 pM to 0.4 nM. Following one hour incubation with molecules, PBMC were washed twice with RPMI complete medium and washed once with PBS. The washed cells were stained with anti-IL2 (MQ1-17H12), anti-human kappa (MHK-49) and lineage surface markers CD3(UCHT1), CD4(SK3) and NK(HCD56) for 20 minutes, after which the cells were washed and analyzed using a flow cytometer. The binding affinity was quantified and represented as mean fluorescence intensity (MFI).

[12] = biological target: T1, human CD8 on human T cells; experiment: flow cytometry, human PBMC co-cultured 1 h with the fusion protein, anti-human kappa staining on CD8 T cells (CD8 antibody binding, MFI)
Method: as §7

[13] = biological target: T1, human CD8 on human T cells; experiment: flow cytometry, human CD8+ T cells, antibody at 0.2 nM, anti-human IgG detection (MFI AF647)
Method: as §1

T1 sequence (P01732 22-235): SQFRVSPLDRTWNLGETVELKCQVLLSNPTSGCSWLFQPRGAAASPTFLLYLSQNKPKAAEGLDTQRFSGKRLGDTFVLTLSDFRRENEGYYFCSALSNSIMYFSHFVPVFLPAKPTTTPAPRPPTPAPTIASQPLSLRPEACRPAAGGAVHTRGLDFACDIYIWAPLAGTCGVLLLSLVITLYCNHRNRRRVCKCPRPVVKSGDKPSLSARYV

Binder	Kd [2] [nM]	Kd [5] [nM]	EC50 of pSTAT5 activation in human CD8+ T cells [9] [pM]	EC50 of Ki67 expression (proliferation) in human CD8+ T cells [10] [nM]	EC50 (read off the curve) [11] [nM]	EC50 (read off the curve) [12] [nM]	other results
Murine 02A01 (antibody, V domains shown, Recombinantly produced IgG; also called 02-parental; 02-Parent) VH: EVQLQQSGPELVKPGASLKISCKASGYTFTDFTMHWVKQSHGKSLEWIGLVNPNNGGNIYNQNFKGKATLTVDTSSSTAYMELRSLTSEDSSVYYCGRVPLYTSHGMDYWGQGTSVTVSS VL: DIVLTQSPAFLAVSLGQRATISCRASESVDSYDINSMHWYQQKPGQPPKLLIYRASHLQSGIPARFSGSGSRTDFTLTINFVEADDVATYYCQQSNEDPLTFGAGTKLELK	0.047	0.075					Fold Change to Parental Apparent KD [1]: 1 fold; Maximum CD8+ T cell Binding (MFI) [1]: 2900 MFI; Fold Change to Parental Calculated KD (human CD8α/β [3]): 1 fold; Kd [4]: 0.057 nM; Kd (human CD8α/β [6]): 9.29 nM
05F10 (antibody, V domains shown, Recombinantly produced murine anti-CD8 IgG) VH: EVQLVESGGGLVKPGGSLKLSCAASGFTFSSFAMSWVRQTPAKRLEWVATISSGDLSANYPDTVKGRFTISRDNAKNTLYLQMSSLRSEDTAMYYCTRPPFYFSNDWFAYWGQGTLVTVSA VL: DVVMTQTPLSLPVSLEDQASISCRSSQSLEHSNGNTYLHWYLQKPGQSPRLLIYKVSNRFSGVPDRFSGSGSGTDFTLKISRVEAEDLGVYFCSQSTHVPFTFGSGTKLEIK	0.242	39.8					
Murine 03A01 (antibody, V domains shown, Recombinantly produced IgG; also called 03-parental; 03-Parent) VH: DVQFQESGPGLVKPSQSLSLTCTVTGYSITSDFAWNWIRQFPGNELEWMGYISYSGDTNYNPSLRSRISITRDTSKNQFFLQLDSVTTEDTATYYCTIRGYYTDSAFVFWGQGTLVTVSA VL: DIQMTQSSSYLSVSLGGRVTITCKASDHINNWLAWYQQKPGNAPRLLISGATSLETGVPSRFTGSGSGLDYTLSITSLQTEDVATYYCQQYWNSPFTFGSGTKLEIK	0.86	1.77					Fold Change to Parental Apparent KD [7]: 1 fold; Kd [8]: 0.926 nM
hCD8 IgG IL2 1× (HC) (other, read as humanized 02A01-VH6-VK3; One wild type human IL-2 on one heavy chain C-terminus; also called hCD8 IgG-IL2(HC)) VH: EVQLVQSGAEVKKPGATVKISCKASGYTFTDFTMHWVQQAPGKGLEWIGLVNPNNGGNIYAEKFQGRVTLTVDTSTSTAYMELSSLRSEDTAVYYCGRVPLYTSHGMDYWGQGTLVTVSS VL: EIVLTQSPATLSLSPGERATISCRASESVDSYDINSMHWYQQKPGQAPRLLIYRASHLQSGIPARFSGSGSRTDFTLTISSLEPEDFATYYCQQSNEDPLTFGQGTKLEIK			0.448	0.0689	~0.03	~0.03	
humanized 02A01-VH5-VK3 (antibody, human IgG1, V domains shown, human IgG1 format; VH5 has the HCDR1 of the top human germline hit) VH: EVQLVQSGAEVKKPGATLKISCKASGYTFTDYYMHWVQQAPGKGLEWIGLVNPNNGGNIYNQNFKGRATLTVDTSTSTAYMELSSLRSEDTSVYYCGRVPLYTSHGMDYWGQGTLVTVSS VL: EIVLTQSPATLSLSPGERATISCRASESVDSYDINSMHWYQQKPGQAPRLLIYRASHLQSGIPARFSGSGSRTDFTLTISSLEPEDFATYYCQQSNEDPLTFGQGTKLEIK							binding result [13]: no binding (tested: 0.2 nM)
hCD8 IgG IL2 (LC) (other, read as humanized 02A01-VH6-VK3; Wild type human IL-2 on each light chain C-terminus) VH: EVQLVQSGAEVKKPGATVKISCKASGYTFTDFTMHWVQQAPGKGLEWIGLVNPNNGGNIYAEKFQGRVTLTVDTSTSTAYMELSSLRSEDTAVYYCGRVPLYTSHGMDYWGQGTLVTVSS VL: EIVLTQSPATLSLSPGERATISCRASESVDSYDINSMHWYQQKPGQAPRLLIYRASHLQSGIPARFSGSGSRTDFTLTISSLEPEDFATYYCQQSNEDPLTFGQGTKLEIK			0.246	0.0551	~0.03	~0.03	
